Measured values from publication PMC4078514 (2014).
No end group written: not given here.

molecular target: gastrin-releasing peptide receptor (GRP-r) (Homo sapiens, UniProt P30550); assay: radioligand saturation binding on PC-3 cells
Sequence (P30550 whole entry): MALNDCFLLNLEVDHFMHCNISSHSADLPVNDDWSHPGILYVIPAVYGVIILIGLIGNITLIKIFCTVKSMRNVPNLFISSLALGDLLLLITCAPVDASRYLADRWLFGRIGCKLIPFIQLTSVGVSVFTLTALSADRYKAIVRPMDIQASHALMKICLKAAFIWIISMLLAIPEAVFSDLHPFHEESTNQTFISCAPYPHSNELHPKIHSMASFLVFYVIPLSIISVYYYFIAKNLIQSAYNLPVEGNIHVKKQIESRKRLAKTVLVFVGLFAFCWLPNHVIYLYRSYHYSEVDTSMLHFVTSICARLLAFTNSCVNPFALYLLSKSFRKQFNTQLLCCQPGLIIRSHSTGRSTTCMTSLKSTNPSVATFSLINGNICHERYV

Binder | Kd [nM]
QWAVGHL (not fully specified (C-terminus); also: (βAla)3 spacer, triazole-Lys 99mTc(CO)3 chelate, succinyl-linked shepherdin KHSSG) [[99mTc(CO)3(14)] BBS-shepherdin(79-83) conjugate] | 10.9
QWAVGHL (not fully specified (C-terminus); also: (βAla)3 spacer, triazole-Lys 99mTc(CO)3 chelate, succinyl-linked scrambled shepherdin SGKHS) [[99mTc(CO)3(15)] BBS-scrambled shepherdin(79-83) conjugate] | 11.3
QWAVGHL (not fully specified (N-terminus, C-terminus); also: triazole 99mTc(CO)3 chelate, methyl group in place of shepherdin) [[99mTc(CO)3(16)] BBS reference conjugate] | 5.6
